Biological target: 新型冠状病毒S1蛋白 (纯化) (SARS-CoV-2, UniProt P0DTC2 14-685)

B1: 人源抗新冠病毒中和性抗体nCoV-61 全抗体IgG (antibody, V domains shown)
VH: EVQLVESGGGLVQPGGSLRLSCEASEIIVNRNYMNWVRQAPGKGLEWVSIIYPGGSTFYADSVKGRFTISRDNSKNTMYLQMNSLRAEDTAVYYCARSYGDFYVDFWGQGTLVTVSS
VL: QSVLTQPPSVSAAPGQKVTISCSGSSSNIGNNYVSWYQQLPGTAPKLLIYDNNKRPSGIPDRFSGSKSGTSATLGITGLQTGDEADYYCGTWDSSLSAWVFGGGTKLTVLG
Kd: 3.33 pM

Source: patent publication CN112430265A (INST FOR VIRAL DISEASE CONTROL AND PREVENTION CHINESE …, dated 2021)
